In general, Km refers to the substrate concentration at which the rate is half of its maximum.

Drawing on article PMC8531335, “Point mutations in Candida glabrata 3-hydroxy-3-methylglutaryl-coenzyme A reductase (CgHMGR) decrease enzymatic activity and substrate/inhibitor affinity” (Scientific Reports, 2021), this text covers Km for 3 substances.

This series concerns CC(C)(COP(=O)(O)OP(=O)(O)OC[C@H]1O[C@@H](n2cnc3c(N)ncnc32)[C@H](O)[C@@H]1OP(=O)(O)O)[C@@H](O)C(=O)NCCC(=O)NCCSC(=O)C[C@@](C)(O)CC(=O)O. Put plainly: purified protein. Type of series: biochemical, Nakaseomyces glabratus. The settings on record: NADPH co-substrate, Tris-HCl; HMG-CoA 1-64 µM; MBP fusion.
Take “CgHMGR (Rec-MBP-CgHMGR, catalytic domain of Candida glabrata HMGR) (Nakaseomyces glabratus CBS 138; D805A)”: the Km turned out to be 11.84 µM.
Turning to “CgHMGR (Rec-MBP-CgHMGR, catalytic domain of Candida glabrata HMGR) (Nakaseomyces glabratus CBS 138; E680Q)”, the Km is on record as 8.31 µM.
In the case of “CgHMGR (Rec-MBP-CgHMGR, catalytic domain of Candida glabrata HMGR) (Nakaseomyces glabratus CBS 138; E711Q)” it was 18 µM.
